Laboratory results taken from patent US20210403514A1 (NATIONAL INSTITUTE FOR BIOTECHNOLOGY IN THE NEGEV, published 2021).
Values belong to the binder of their own block, whether it stands above or below them.

Key:
[1] = molecular target: T1, soluble human c-FMS receptor (extracellular domains, residues Met1-Glu512) (Sino Biological) (human, UniProt P07333 20-512); test: SPR (ProteOn XPR36), M-CSF protein immobilised, c-FMS (Met1-Glu512) 4.375-70 nM as analyte, equilibrium, N=3
T1 construct: range 1-512; Analyte in both SPR experiments; The printed range starts at Met1, so it includes the signal peptide; also called human c-FMS soluble proteins
T1 sequence (P07333 20-512 limits assumed): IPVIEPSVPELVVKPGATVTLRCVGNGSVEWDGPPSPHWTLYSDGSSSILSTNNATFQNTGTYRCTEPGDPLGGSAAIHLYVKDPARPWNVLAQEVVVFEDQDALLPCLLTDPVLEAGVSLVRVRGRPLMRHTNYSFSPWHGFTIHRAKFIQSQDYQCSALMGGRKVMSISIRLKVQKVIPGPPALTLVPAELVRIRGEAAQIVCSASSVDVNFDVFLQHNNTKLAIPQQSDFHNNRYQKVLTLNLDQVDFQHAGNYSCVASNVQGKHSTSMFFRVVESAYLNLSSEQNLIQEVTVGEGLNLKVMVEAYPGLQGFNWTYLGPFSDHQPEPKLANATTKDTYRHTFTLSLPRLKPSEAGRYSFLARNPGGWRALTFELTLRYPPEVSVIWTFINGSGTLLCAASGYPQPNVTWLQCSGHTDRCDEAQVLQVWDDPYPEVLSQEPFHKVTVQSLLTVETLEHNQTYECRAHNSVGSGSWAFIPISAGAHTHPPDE

[2] = molecular target: the molecule itself; test: SAXS, radius of gyration against protein concentration; oligomeric state (homodimer) in solution
[3] = molecular target: T2, soluble Fc conjugated human c-FMS (R&D systems) (human, UniProt P07333 20-512); test: yeast surface display, flow cytometry; soluble c-FMS-Fc titrated from 0.5 to 2000 nM
T2 construct: Bought reagent; Used in all yeast display experiments; also called c-FMS-Fc; c-FMS-Fc recombinant protein; not shown: Fc (detected with goat anti human Fc)
T2 sequence (P07333 20-512 limits assumed): as above

[4] = molecular target: T2, soluble Fc conjugated human c-FMS (R&D …); test: yeast surface display flow cytometry; displayed M-CSFM titrated with c-FMS-Fc (0.5 nM to 2000 nM); apparent KD
[5] = molecular target: T1, soluble human c-FMS receptor …; test: SPR (ProteOn XPR36), M-CSF protein immobilised, c-FMS (Met1-Glu512) as analyte, equilibrium, N=3
[6] = molecular target: the molecule itself; test: BS3 chemical crosslinking, SDS-PAGE, InstantBlue stain; self-association (homodimer)
[7] = molecular target: T3, murine c-FMS on bone marrow derived monocytes (BMMs) (mouse, UniProt P09581 20-977); test: cell-based or functional assay
T3 sequence (looked up): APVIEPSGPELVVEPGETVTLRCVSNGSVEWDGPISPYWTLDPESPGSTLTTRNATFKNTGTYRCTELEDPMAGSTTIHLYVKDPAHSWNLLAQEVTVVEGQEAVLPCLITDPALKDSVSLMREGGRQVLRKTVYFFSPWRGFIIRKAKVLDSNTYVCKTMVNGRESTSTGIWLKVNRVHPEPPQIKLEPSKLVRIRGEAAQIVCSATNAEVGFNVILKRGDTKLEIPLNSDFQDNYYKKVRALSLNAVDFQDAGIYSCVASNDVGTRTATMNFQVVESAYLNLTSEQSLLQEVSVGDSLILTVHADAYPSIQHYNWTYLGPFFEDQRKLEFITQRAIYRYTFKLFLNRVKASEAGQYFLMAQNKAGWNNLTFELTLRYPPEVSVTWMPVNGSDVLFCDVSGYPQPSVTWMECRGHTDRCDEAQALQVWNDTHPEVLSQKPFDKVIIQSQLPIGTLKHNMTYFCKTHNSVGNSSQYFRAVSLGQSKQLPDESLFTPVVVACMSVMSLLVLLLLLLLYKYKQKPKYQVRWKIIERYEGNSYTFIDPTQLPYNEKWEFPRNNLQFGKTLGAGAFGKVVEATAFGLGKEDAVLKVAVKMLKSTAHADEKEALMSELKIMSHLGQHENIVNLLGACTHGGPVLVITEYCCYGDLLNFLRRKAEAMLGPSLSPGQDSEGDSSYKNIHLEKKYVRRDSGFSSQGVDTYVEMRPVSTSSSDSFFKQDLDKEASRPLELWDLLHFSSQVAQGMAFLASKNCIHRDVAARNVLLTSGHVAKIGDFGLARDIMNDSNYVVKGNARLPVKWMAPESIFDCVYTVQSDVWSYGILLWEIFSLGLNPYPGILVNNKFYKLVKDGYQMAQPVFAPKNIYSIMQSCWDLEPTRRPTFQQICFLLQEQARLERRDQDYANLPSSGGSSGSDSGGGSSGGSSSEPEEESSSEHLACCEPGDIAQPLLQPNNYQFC

[8] = molecular target: T1, soluble human c-FMS receptor …; test: SPR (ProteOn XPR36), M-CSF protein immobilised, c-FMS 0-200 nM as analyte, equilibrium
[9] = molecular target: T4, soluble human αvβ3 integrin (human, UniProt P06756 31-992; P05106 27-718); test: SPR (ProteOn XPR36); variant immobilized by amine coupling, soluble αvβ3 integrin flowed at 12.5 to 200 nM; panel assigned to M-CSFM although the legend prints '9A and 9E'
T4 construct: R&D Systems for yeast display; also called integrin αvβ3; recombinant αvβ3 integrin

[10] = molecular target: T1, soluble human c-FMS receptor …; test: SPR (ProteOn XPR36), variant immobilised, c-FMS 0-200 nM as analyte, equilibrium
[11] = molecular target: T5, integrin α3β1 (human, UniProt P26006 33-991; P05556 21-728, limits assumed); test: SPR (ProteOn XPR36); α3β1 integrin immobilized, variant flowed at 1 µM
T5 construct: Immobilised on the SPR chip
T5 sequence (P26006 33-991 limits assumed, chain 1 of 2): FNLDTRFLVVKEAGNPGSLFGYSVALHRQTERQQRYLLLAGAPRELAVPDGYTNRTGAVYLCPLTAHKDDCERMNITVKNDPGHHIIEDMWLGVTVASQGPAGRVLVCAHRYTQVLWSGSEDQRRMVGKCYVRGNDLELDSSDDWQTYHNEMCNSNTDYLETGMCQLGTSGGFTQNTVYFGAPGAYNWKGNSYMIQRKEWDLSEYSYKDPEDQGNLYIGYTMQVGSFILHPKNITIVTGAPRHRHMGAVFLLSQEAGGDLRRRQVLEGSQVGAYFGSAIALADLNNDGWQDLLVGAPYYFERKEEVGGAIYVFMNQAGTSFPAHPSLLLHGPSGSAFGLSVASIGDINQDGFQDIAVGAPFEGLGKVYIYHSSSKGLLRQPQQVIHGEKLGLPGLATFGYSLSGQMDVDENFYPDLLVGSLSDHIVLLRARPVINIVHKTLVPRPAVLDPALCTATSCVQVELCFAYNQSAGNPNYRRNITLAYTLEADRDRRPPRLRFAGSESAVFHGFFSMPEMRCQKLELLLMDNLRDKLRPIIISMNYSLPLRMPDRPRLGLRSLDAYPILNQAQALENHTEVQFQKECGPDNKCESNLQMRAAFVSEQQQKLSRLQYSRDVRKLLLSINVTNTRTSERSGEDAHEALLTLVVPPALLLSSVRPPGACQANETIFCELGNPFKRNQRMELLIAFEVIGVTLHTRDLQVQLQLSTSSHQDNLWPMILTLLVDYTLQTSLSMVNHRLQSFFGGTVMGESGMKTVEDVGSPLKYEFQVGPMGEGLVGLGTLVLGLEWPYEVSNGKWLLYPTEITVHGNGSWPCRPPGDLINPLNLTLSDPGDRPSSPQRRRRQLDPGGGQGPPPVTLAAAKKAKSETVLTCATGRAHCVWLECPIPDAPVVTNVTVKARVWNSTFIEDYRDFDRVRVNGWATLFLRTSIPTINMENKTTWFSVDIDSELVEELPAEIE
T5 sequence (P05556 21-728 limits assumed, chain 2 of 2): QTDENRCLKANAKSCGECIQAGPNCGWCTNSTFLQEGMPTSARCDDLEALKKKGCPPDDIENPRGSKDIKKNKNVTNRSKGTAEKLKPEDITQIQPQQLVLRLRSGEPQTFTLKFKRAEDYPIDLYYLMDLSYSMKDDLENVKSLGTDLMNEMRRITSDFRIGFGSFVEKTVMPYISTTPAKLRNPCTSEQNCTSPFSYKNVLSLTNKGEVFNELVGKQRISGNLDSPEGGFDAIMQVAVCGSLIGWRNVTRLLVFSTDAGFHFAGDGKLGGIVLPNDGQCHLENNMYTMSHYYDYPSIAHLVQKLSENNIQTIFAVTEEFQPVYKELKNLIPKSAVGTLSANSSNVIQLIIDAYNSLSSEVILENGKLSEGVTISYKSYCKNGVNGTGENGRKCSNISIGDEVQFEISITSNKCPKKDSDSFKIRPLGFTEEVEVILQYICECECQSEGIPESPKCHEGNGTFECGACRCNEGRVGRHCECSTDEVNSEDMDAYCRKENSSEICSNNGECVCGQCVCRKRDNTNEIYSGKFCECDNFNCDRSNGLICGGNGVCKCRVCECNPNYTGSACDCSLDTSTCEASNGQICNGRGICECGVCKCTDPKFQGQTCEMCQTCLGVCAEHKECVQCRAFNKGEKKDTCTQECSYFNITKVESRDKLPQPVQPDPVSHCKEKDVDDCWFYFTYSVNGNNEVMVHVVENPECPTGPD

[12] = molecular target: T6, integrin α4β7 (human, UniProt P13612 34-977; P26010 20-723, limits assumed); test: SPR (ProteOn XPR36); α4β7 integrin immobilized, variant flowed at 1 µM
T6 construct: Immobilised on the SPR chip
T6 sequence (P13612 34-977 limits assumed, chain 1 of 2): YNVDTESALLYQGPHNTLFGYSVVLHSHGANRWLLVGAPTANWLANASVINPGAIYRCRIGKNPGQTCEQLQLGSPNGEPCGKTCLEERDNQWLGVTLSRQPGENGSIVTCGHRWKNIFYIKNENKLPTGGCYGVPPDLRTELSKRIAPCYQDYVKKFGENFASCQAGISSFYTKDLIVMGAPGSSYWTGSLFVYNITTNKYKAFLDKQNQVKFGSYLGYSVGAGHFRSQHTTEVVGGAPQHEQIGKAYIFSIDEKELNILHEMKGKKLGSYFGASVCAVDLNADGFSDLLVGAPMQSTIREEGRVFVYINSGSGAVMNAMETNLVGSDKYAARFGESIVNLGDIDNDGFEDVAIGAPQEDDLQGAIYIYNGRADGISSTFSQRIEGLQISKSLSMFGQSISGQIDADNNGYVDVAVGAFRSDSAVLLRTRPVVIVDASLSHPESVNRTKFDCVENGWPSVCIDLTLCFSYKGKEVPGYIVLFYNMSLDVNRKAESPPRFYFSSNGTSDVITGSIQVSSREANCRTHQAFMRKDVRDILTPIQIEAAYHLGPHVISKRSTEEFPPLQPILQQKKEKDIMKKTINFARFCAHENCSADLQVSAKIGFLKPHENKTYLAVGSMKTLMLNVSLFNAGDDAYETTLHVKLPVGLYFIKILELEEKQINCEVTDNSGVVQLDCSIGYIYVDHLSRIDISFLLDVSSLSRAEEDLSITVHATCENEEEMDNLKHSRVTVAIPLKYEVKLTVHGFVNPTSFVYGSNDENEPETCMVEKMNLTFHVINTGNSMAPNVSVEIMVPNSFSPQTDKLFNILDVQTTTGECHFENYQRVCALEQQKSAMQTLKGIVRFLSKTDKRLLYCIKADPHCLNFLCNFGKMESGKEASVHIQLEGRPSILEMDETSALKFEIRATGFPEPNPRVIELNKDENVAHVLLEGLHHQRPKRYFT
T6 sequence (P26010 20-723 limits assumed, chain 2 of 2): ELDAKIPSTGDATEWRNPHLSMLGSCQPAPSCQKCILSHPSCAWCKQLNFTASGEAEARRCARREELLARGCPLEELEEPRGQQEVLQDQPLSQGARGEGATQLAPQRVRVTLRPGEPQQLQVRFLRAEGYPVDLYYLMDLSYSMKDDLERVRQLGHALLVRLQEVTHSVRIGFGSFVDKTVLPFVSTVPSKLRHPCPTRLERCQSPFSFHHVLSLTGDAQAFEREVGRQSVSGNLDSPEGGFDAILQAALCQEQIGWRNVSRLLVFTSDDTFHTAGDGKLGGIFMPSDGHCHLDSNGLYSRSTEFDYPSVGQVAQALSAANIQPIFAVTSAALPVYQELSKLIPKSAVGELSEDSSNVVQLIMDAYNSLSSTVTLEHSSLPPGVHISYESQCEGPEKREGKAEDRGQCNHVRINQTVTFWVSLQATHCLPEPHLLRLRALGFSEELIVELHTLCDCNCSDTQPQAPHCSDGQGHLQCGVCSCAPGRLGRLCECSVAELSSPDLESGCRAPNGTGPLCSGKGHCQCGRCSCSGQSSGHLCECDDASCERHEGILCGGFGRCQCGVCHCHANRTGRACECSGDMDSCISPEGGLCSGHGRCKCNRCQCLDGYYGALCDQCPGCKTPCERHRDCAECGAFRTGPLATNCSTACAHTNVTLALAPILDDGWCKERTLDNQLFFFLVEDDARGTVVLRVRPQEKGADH

[13] = molecular target: T7, integrin α5β1 (human, UniProt P08648 42-995; P05556 21-728, limits assumed); test: SPR (ProteOn XPR36); α5β1 integrin immobilized, variant flowed at 1 µM
T7 construct: Immobilised on the SPR chip
T7 sequence (P08648 42-995 limits assumed, chain 1 of 2): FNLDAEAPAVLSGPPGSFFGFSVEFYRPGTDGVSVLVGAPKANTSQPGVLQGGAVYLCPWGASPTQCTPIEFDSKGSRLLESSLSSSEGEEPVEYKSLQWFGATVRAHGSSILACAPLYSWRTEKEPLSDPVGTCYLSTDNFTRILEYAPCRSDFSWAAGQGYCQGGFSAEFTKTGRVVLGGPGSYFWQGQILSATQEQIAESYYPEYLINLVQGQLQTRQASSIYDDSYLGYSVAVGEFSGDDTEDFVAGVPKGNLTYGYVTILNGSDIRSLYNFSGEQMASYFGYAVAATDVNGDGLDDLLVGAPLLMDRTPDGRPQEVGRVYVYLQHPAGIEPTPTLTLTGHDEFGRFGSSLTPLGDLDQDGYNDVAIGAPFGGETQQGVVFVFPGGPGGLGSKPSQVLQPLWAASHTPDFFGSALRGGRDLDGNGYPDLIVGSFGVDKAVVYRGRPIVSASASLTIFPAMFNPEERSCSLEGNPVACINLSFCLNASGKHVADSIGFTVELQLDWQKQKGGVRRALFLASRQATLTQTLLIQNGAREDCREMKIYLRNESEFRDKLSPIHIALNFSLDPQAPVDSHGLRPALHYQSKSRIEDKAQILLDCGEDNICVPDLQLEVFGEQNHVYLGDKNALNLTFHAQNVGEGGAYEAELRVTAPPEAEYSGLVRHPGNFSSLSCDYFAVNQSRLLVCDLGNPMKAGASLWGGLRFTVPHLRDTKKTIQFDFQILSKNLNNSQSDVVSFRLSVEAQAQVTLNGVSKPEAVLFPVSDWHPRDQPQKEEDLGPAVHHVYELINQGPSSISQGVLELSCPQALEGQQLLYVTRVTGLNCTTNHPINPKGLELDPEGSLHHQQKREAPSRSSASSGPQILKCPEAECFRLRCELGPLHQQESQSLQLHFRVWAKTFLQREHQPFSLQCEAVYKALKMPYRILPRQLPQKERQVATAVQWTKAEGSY
T7 sequence (P05556 21-728 limits assumed, chain 2 of 2): as the sequence (P05556 21-728 limits assumed, chain 2 of 2) above

[14] = molecular target: T4, soluble human αvβ3 integrin; test: SPR (ProteOn XPR36), variant immobilised, αvβ3 integrin 0-200 nM as analyte, equilibrium
[15] = molecular target: the molecule itself; test: BS3 chemical crosslinking, denaturing SDS-PAGE, Coomassie stain; self-association (homodimer)
[16] = molecular target: the molecule itself; test: as above; remark: listed apart in the source
[17] = molecular target: T4, soluble human αvβ3 integrin; test: SPR (ProteOn XPR36), M-CSFαvβ3 immobilised, αvβ3 integrin 0-200 nM as analyte, equilibrium

B1: human wild-type M-CSF (M-CSFWT) (ligand)
chain: EEVSEYCSHMIGSGHLQSLQRLIDSQMETSCQITFEFVDQEQLKDPVCYLKKAFLLVQDIMEDTMRFRDNTPNAIAIVQLQELSLRLKSCFTKDYEEHDKACVRTFYETPLQLLEKVKNVFNETKNLLDKDWNIFSKNCNNSFAECSSQGHERQSEGS
notes: also called human M-CSFWT
Kd [1]: 25.1 nM | binding result [2]: binds

B2: M-CSFM displayed on the yeast surface (YSD M-CSFM) (ligand)
chain: EEVSEYCSHMIGSGHLQSLQRLIDSQMETSSQITFEFVDQEQLKDPVCYLKKAFLLVQDIMEDTMRFRDNTPNAIAIVQLQELSLRLKSCFTKDYEEHDKACVRTFYETPLQLLEKVKNVFNETKNLLDKDWNIFSKNCNNSFAECSSQGHERQSEGS
notes: also called M-CSF monomer; not shown: yeast surface display fusion partner (pCTCON construct on the S. cerevisiae cell wall, with c-myc tag)
EC50 (read off the curve) [3]: ~20 nM | Kd [4]: 20 nM

B6: M-CSFRGD variant 4.24, purified soluble, non-glycosylated (designed binder)
chain: EEVSEYCSHMIGSGHLQSLQRLIDSQMETSSQITFEFVDQEQLKDPVCYLKKAFLLVQDIMEDEPVRGDNINPNAIAIVQLQELSLRLKSCFTKDYEEHDKACVRTFYETPLQLLEKVKNVFNETKNLLDKDWNIFSKNCNNSFAECSSQGHERQSEGS
modifications: N-glycans removed with Endo HF (non-glycosylated)
notes: not shown: FLAG tag at the N-terminus of the cloning site (pPIC9K); 6xHis tag at the C-terminus of the cloning site
Kd [10]: 219 nM | binding result [11]: no binding (tested: 1 µM) | binding result [12]: no binding (tested: 1 µM) | binding result [13]: no binding (tested: 1 µM) | Kd [14]: 108 nM | binding result [15]: no binding

B7: M-CSFRGD variant 4.22, purified soluble, non-glycosylated (designed binder)
chain: EEVSEYCSHMIGSGHLQSLQRLIDQTSRGDSPSITFEFVDQEQLKDPVCYLKKAFLLVQDIMEDTMRFRDNTPNAIAIVQLQELSLRLKSCFTKDYEEHDKACVRTFYETPLQLLEKVKNVFNETKNLLDKDWNIFSKNCNNSFAECSSQGHERQSEGS
modifications: N-glycans removed with Endo HF (non-glycosylated). Labelled with DyLight 488 NHS ester on amines for the cell binding assays. Amine-coupled to the chip for SPR.
notes: Pichia pastoris product; 21.7 kDa by MS; not shown: N-terminal FLAG tag, C-terminal 6xHis tag and the vector junction residues (pPIC9K cloning site)
Kd [10]: 152 nM | binding result [11]: no binding (tested: 1 µM) | binding result [12]: no binding (tested: 1 µM) | binding result [13]: no binding (tested: 1 µM) | Kd [14]: 199 nM | binding result [16]: no binding

B9: M-CSFRGD variant 5.6, purified soluble, non-glycosylated (designed binder)
chain: EEVSEYCSHMIGSGHLQSLQRLIDTYPRGDMCSITFEFVDQEQLKDPVCYLKKAFLLVQDIMEDTMRFRDNTPNAIAIVQLQELSLRLKSCFTKDYEEHDKACVRTFYETPLQLLEKVKNVFNETKNLLDKDWNIFSKNCNNSFAECSSQGHERQSEGS
modifications: N-glycans removed with Endo HF (non-glycosylated). Labelled with DyLight 488 NHS ester on amines for the cell binding assays. Amine-coupled to the chip for SPR.
notes: Pichia pastoris product; 22 kDa by MS; also called M-CSFRGD 5.6; M-CSF5.6; not shown: N-terminal FLAG tag, C-terminal 6xHis tag and the vector junction residues (pPIC9K cloning site)
Kd [10]: 96 nM | binding result [11]: no binding (tested: 1 µM) | binding result [12]: no binding (tested: 1 µM) | binding result [13]: no binding (tested: 1 µM) | Kd [14]: 245 nM | binding result [15]: no binding

Continued, in another order:

Kd [5]: 61.5 nM
B3: M-CSFC31S,M27R (designed binder)
chain: EEVSEYCSHMIGSGHLQSLQRLIDSQRETSSQITFEFVDQEQLKDPVCYLKKAFLLVQDIMEDTMRFRDNTPNAIAIVQLQELSLRLKSCFTKDYEEHDKACVRTFYETPLQLLEKVKNVFNETKNLLDKDWNIFSKNCNNSFAECSSQGHERQSEGS
notes: monomer; Purified from Pichia pastoris GS115; also called M-CSFM,M27R; M-CSF double mutant
binding result [6]: no binding

c-FMS phosphorylation at the peak concentration, fold against M-CSFWT [7]: 10 fold | c-FMS phosphorylation at the peak concentration, fold against the positive control (0.5 nM murine M-CSF) [7]: 40 fold | Kd [8]: 31.6 nM | binding result [9]: no binding (tested: 200 nM)
B4: M-CSFM, purified soluble, non-glycosylated (M-CSFC31S) (ligand)
chain: EEVSEYCSHMIGSGHLQSLQRLIDSQMETSSQITFEFVDQEQLKDPVCYLKKAFLLVQDIMEDTMRFRDNTPNAIAIVQLQELSLRLKSCFTKDYEEHDKACVRTFYETPLQLLEKVKNVFNETKNLLDKDWNIFSKNCNNSFAECSSQGHERQSEGS
modifications: N-glycans removed with Endo HF (non-glycosylated)
notes: Expressed in Pichia pastoris GS115; Forms non-covalent dimers; also called non-glycosylated M-CSFM; M-CSF monomer; not shown: FLAG tag at the N-terminus of the cloning site (pPIC9K); 6xHis tag at the C-terminus of the cloning site
binding result [6]: binds

Kd [8]: 42.6 nM
B5: glycosylated M-CSFM, purified soluble (ligand)
chain: EEVSEYCSHMIGSGHLQSLQRLIDSQMETSSQITFEFVDQEQLKDPVCYLKKAFLLVQDIMEDTMRFRDNTPNAIAIVQLQELSLRLKSCFTKDYEEHDKACVRTFYETPLQLLEKVKNVFNETKNLLDKDWNIFSKNCNNSFAECSSQGHERQSEGS
modifications: N-glycosylated (two glycosylation sites in positions 122 and 140)
notes: Pichia pastoris product without Endo HF treatment; not shown: FLAG tag at the N-terminus of the cloning site (pPIC9K); 6xHis tag at the C-terminus of the cloning site

Kd [17]: 231 nM
B8: M-CSFαvβ3 (variant 4.22 with histidine to alanine in positions 9 and 15), purified soluble (designed binder, not shown: small tags and cut ends)
chain: EEVSEYCSAMIGSGALQSLQRLIDQTSRGDSPSITFEFVDQEQLKDPVCYLKKAFLLVQDIMEDTMRFRDNTPNAIAIVQLQELSLRLKSCFTKDYEEHDKACVRTFYETPLQLLEKVKNVFNETKNLLDKDWNIFSKNCNNSFAECSSQGHERQSEGS
modifications: Expressed in Pichia with an N-terminal FLAG tag and a C-terminal 6xHis tag, neither of which is in the letters. N-glycans were removed with Endo HF.
